Test results published in publication PMC6515139, “Oligomeric Architecture of Mouse Activating Nkrp1 Receptors on Living Cells” (International Journal of Molecular Sciences, 2019).
One block for each molecule: values may come before it.

Columns and labels:
[1] = target: EGFP-Nkrp1a_C74S (mouse (C57BL/6)) (UniProt P27811); experiment: FRET or BRET; homo-FRET (steady-state fluorescence anisotropy of EGFP, time-domain, TCSPC) at the plasma membrane of living transfected Jurkat cells on PLL-coated slides, 37 °C; semi-quantitative, calibrated by monomeric LAT and dimeric CD8α
[2] = target: EGFP-Nkrp1a_C74,88S (mouse (C57BL/6)) (UniProt P27811); experiment: as above
[3] = target: EGFP-Nkrp1c2 (mouse (C57BL/6)); experiment: as above
[4] = target: EGFP-Nkrp1a_C88S (mouse (C57BL/6)) (UniProt P27811); experiment: as above
[5] = target: the molecule itself; experiment: as above
[6] = target: the molecule itself; experiment: SEC + other: SDS-PAGE under reducing and non-reducing conditions; refolded ectodomains on calibrated Superdex 75 (Nkrp1a^ECTO: 150 mM NaCl, 15 mM Tris-HCl pH 7.5; the others: 10 mM HEPES pH 7.4, 100 mM NaCl); main peaks analysed on 15% SDS-PAGE

steady-state anisotropy, mean [1]: 0.273
steady-state anisotropy, median [1]: 0.272
Molecule: EGFP-Nkrp1a_C74S (from UniProt P27811 1-227) (receptor)

steady-state anisotropy, mean [2]: 0.285
steady-state anisotropy, median [2]: 0.283
Molecule: EGFP-Nkrp1a_C74,88S (from UniProt P27811 1-227) (receptor)

steady-state anisotropy, mean [3]: 0.248
steady-state anisotropy, median [3]: 0.249
Molecule: EGFP-Nkrp1c2 (receptor)

steady-state anisotropy, mean [4]: 0.267
steady-state anisotropy, median [4]: 0.266
Molecule: EGFP-Nkrp1a_C88S (from UniProt P27811 1-227) (receptor)

B1: EGFP-Nkrp1c1 (receptor, mouse (C57BL/6), UniProt P27814 1-223, looked up)
chain: MDTASIYLGLKPPRTLGAWHESPPSLPPDACRCPRSHRLALKLSCAGLILLVLTLIGMSVLVRVLVQKPSREKCCVFIQENLNKTTDCSVNLECPQDWLLHRDKCFHVSQVSNTWEEGQADCGRKGATLLLIQDQEELRFLLDSIKEKYNSFWIGLRFTLPDMNWKWINGTTFNSDVLKITGVTENGSCASILGDKVTPESCASDNRWICQKELNHETPSNDS
notes: last residue S223; Vector pXJ41; also called c1 isoform; source: Jurkat, transiently transfected, living cells; COS-7, transiently transfected, in lysate; not shown: EGFP (with spacer GSGGGS), N-terminal, kept
steady-state anisotropy, mean [5]: 0.244
steady-state anisotropy, median [5]: 0.242

B2: EGFP-Nkrp1f (receptor, mouse (C57BL/6), UniProt Q8VD98 1-217, looked up)
chain: MDTSKVHGNVKPFRCPGYKQASSPSFSPDACRCPHWHHLALKSGCAGLILLLLSLIGLSVLVRFLVQKPPIEKCSVAAQENRTELTGRSAILECPRYWHPHWNKCLFVSQISRPWAEGRDACSMEDAILLLIENKEELRFVQNLIKGKEQLFFIGLKYVQKEKIWKWIDGSILNPNLLRITGKDKENSCAIISHTEVFSDSCSSDNHWICQKTLIHV
notes: last residue V217; Vector pXJ41; also called f isoform; source: Jurkat, transiently transfected, living cells; COS-7, transiently transfected, in lysate; not shown: EGFP (with spacer GSGGGS), N-terminal, kept
steady-state anisotropy, mean [5]: 0.25
steady-state anisotropy, median [5]: 0.25

B3: EGFP-Nkrp1f_C74S (receptor, mouse (C57BL/6), UniProt Q8VD98 1-217, looked up)
chain: MDTSKVHGNVKPFRCPGYKQASSPSFSPDACRCPHWHHLALKSGCAGLILLLLSLIGLSVLVRFLVQKPPIEKSSVAAQENRTELTGRSAILECPRYWHPHWNKCLFVSQISRPWAEGRDACSMEDAILLLIENKEELRFVQNLIKGKEQLFFIGLKYVQKEKIWKWIDGSILNPNLLRITGKDKENSCAIISHTEVFSDSCSSDNHWICQKTLIHV
notes: Two extra C-terminal residues (Thr-Gly) possible as for m8 (surmise from the primer); also called C74S mutant of Nkrp1f; source: Jurkat, transiently transfected, living cells; COS-7, transiently transfected, in lysate; not shown: EGFP (with spacer GSGGGS), N-terminal, kept
steady-state anisotropy, mean [5]: 0.281
steady-state anisotropy, median [5]: 0.281

B4: EGFP-Nkrp1a (receptor, mouse (C57BL/6), UniProt P27811 1-227, looked up)
chain: MDTARVYFGLKPPRTPGAWHESPPSLPPDACRCPRSHRLALKLSCAGLILLVVTLIGMSVLVRVLIQKPSIEKCYVLIQENLNKTTDCSAKLECPQDWLSHRDKCFQVSHVSNTWEEGLVDCDGKGATLMLIQDQEELRFLLDSIKEKYNSFWIGLRYTLPDMNWKWINGSTLNSDVLKITGDTENDSCAAISGDKVTFESCNSDNRWICQKELYHETLSNYVGYGH
notes: last residue H227; Vector pXJ41; also called Nkrp1a1; a1 isoform; source: Jurkat, transiently transfected, living cells; COS-7, transiently transfected, in lysate; not shown: EGFP (with spacer GSGGGS), N-terminal, kept
steady-state anisotropy, mean [5]: 0.269
steady-state anisotropy, median [5]: 0.271

B5: Nkrp1c1^ECTO (domain or fragment, mouse (C57BL/6), UniProt P27814 70-223, looked up)
chain: SREKCCVFIQENLNKTTDCSVNLECPQDWLLHRDKCFHVSQVSNTWEEGQADCGRKGATLLLIQDQEELRFLLDSIKEKYNSFWIGLRFTLPDMNWKWINGTTFNSDVLKITGVTENGSCASILGDKVTPESCASDNRWICQKELNHETPSNDS
notes: mouse (C57BL/6) Nkrp1c isoform c1 ectodomain with stalk, residues S70-S223; Cloned into pET-30a(+) between NdeI and HindIII; an initiator Met may precede S70 (surmise); The monomeric form bears cysteamine on C88; the dimeric form has a C88-C88 disulfide; also called Nkrpc1^ECTO; recombinant ectodomain of Nkrp1c1
stoichiometry N [6]: 2

B6: Nkrp1f^ECTO (domain or fragment, mouse (C57BL/6), UniProt Q8VD98 67-217, looked up)
chain: QKPPIEKCSVAAQENRTELTGRSAILECPRYWHPHWNKCLFVSQISRPWAEGRDACSMEDAILLLIENKEELRFVQNLIKGKEQLFFIGLKYVQKEKIWKWIDGSILNPNLLRITGKDKENSCAIISHTEVFSDSCSSDNHWICQKTLIHV
notes: mouse (C57BL/6) Nkrp1f ectodomain with stalk, residues Q67-V217; Cloned into pET-30a(+) between NdeI and HindIII; an initiator Met may precede Q67 (surmise); The monomeric form bears cysteamine on C74; the dimeric form has a C74-C74 disulfide; also called recombinant ectodomain of Nkrp1f
stoichiometry N [6]: 2
